Measurements published in a protein production outcome set (Wang et al. 2014).

experiment: label from the status in PepcDB records

Sequence	protein production
MSNDKTPNSPESTPSTPADEVLDGLLAELSPEASAEPNPADDSGNPFTTIFKSVTDKATELGSAATEGLSNLQESATELAAETKEKFGNFAEAHKDDLGQLLTSAQGKAASFGEAVSDRFGELGESATESFGNLQEGAAGFAAGAKEKFGDFAEASQEKLSEIAETTQDKAASFGEAVSDRVEGLRGSAAEKLGNLQEGASELAAGAKEKFGDFAEASQEKLSEIVETTQGKAASFGEAVSDRVEGLRGSAAEKLGNLQEGASELAAGAKEKFGDFAEASQEKLSEIVETTQGKAASFGEAVSDRFGELGESAAEKLSNLQEDASEFAASAQEKLSTFTNARQEELGNLTKSAQSDVQDTANTVSEQLEQAPEAVSTAADSLKGAQEKLEAAVVASQSVAEKLKPAEVQSQSSLQLASESPSPSFFGRLLRKIKGFFRKLFG	failed
MSNGGSFTVEKLSLYGNPNIGVYLTASDSYVLAPDDIGADDVRTISEVLGVAMERVVRLRVLGMRLVGVLTTGNSRGILLPEGVDREVELVRKALEGVEVGIVPTRSNALGNVIVCNDRACLASPGLEKEALKTVSDTLGVEVVEGSVAGVYTVGSAIVVTNRGGLAHPDASEEELKFLSDVFKVPFEAGTINFGVEFVRTGLVANSYGALVGEDTTGPEIARIQVALGGGVK	failed
MSNHEEKKQHVALSSVAASLLLTAMKLVVGLMTGSIGILSEAAHSAIDFGAAALTWFAVRISDKPADKKHHYGHTKIESVSALIETGLLILTSVWIIYEAVTRLLSGTTEIEVTWYAIAVIIISIIVDISRASALKKVAKETKSQALEADALHFTSDIVSSAVVLAGLGFVALGMHWADAVAGIFVAVLVGKAAWELGRKTIDVLIDTAPEGLSEQIEEIVVNAPGVIGINKMRIKPAGGPFVFIDLTISVSRTLPQEKVVAICAGVEQRLKAALPDSDITVNARPVVLDSETVTERIHTIGLNHGLHAHNILTSLSGDHKQITFDVEVDSRLTIRQAHDAVTELENELHREFNEEIDLCIHLDPINSEERNVQPADPENEARITALIRQAASTIPGILNVHALKIHVLSYNKLCITLHCGFDDNTVLADVHPLTSRLECLIYRDIPETSRIIVHAEPVNAGD	failed
MSNHQKRLSVPNSWPVERKTATFTVKAGAGPHGESGVPLLIVLRDVLGYADNRKEARYALNEDNVLINGKAISDEERPVGMFDILAFTEREEYYRVFPGEGGRLALTAIDPDAAQSKLGKIVTKTHVSGGDVQLGLHDGETLIVEDDQTYDAGDSIVVGNEDGEVVAHFEYEEGALVTAVDGAHAGEVGEVEEIQVTPGSAQNNVIVSQDEGEGFETVEEYVVVIDENFTGDDELEHHHHHH	not failed
MSNKIVTLEINLEPSDNRRLASLCGPFDDNIKHLERRLGVEINHRSDHFTIVGKPHTSAAALDILKTLYVDTAPVRGEIPDIEPEQIHLAIKESGVLEQNTESSIAHGKEVFVKTKKGVIKPRTPNQAQYLVNMVTHDISFGIGPAGTGKTYLAVAAAVDALERQEIRRILLTRPAVEAGEKLGFLPGDLSQKVDPYLRPLYDALFEMLGFERVEKLIERNVIEVAPLAYMRGRTLNDAFIILDESQNTTVEQMKMFLTRIGFNSRAVITGDVTQIDLPRGAKSGLRHAIEVLSEVDDISFNFFQADDVVRHPVVARIVNAYEKWEAQDQKERKEFEKRRREERDAKLLEAAKAELSAQVAATKE	not failed
MSNVIASLEKVLLPFAVKIGKQPHVNAIKNGFIRLMPLTLAGAMFVLINNVFLSFGEGAFFYSMGIRLDASTIETLNGLKGIGGNVYNGTLGIMSLMAPFFIGMALAEERKVDALAAGLLSVAAFMTVTPYSVGEAYAVGANWLGGANIISGIIIGLVVAEMFTFIVRRNWVIKLPDSVPASVSRSFSALIPGFIILSIMGIIAWALSNYGSNFHQIIMDTISTPLASLGSVVGWAYVIFVPLLWFFGIHGSLALTALDSGIMTPWALENISIYQQYGSVDAALEAGKTFHIWAKPMLDSYIFLGGSGATLGLIIAIFLASRRADYRQVAKLALPSGIFQINEPILFGLPIIMNPVMFIPFILVQPILAAITLVAYYLGIIPPITNIAPWTMPTGLGAFFNTNGSVAALLVALFNLAVATLIYLPFVVVANKAQNAIEQEESEEDIANALKF	not failed
MSNVSALPIQPETTPSGGGSVRDRVSPQEWEVRVKLAAAYRLAALKRWTDHIYTHFSARVPGPDEHFLINAFGLLFDEITASNLVKVDIDGTIVDDPTGLGINYAGYVIHSAIHAARHDLQAVLHTHTRDGIAVSAQKGGLLPISQHSIAFSGRVAYHGYEGIALDLSERERLVADLGDKSVMILRNHGLLTGGVSVEHAFQQLHALEYACNIQIAAQSAGNDELVFPPQEVIARVEEQAKVIKDGHGPGVARHWNALIRELERSGTDYRE	failed
MSNVVWTNFGRSSPDRMRARGGKLMAEPDFEAQLTRMFAQAPSFPDAALFNAEVMAKLDRGWAMRRMFIAVAGTGAGLIGAFQIFGSRFSNELAQLSREGSHGLETEINGGWAKLTALLSTPSSAEAVWLAAGLAVVALAFAVTRLVEDF	failed
MSNWNLDNFDNLHSSLAESAYNSRPNSFPELFETDSVTEVKFSQPSEDNKGQITQGGTNLPNDGIVYLQPDKSLKSIDENVKVLIPDVNGGYHTEHYVTHSYQKGVLTDDKAGFNAYYLSDTEKIDSTTKHTYLAIRGSDGIGLDTLNDWVSNNAMFAVSNKYIPQAKLANKAMKEKIAELKGKAPGAIIDVTGHSLGTIVSSQAVVNLSYAELENVGQVVLFDGPDVSRSLEKMEGISAKKIQEAGKHVTYYVNPFDIVSMLNREKP	failed
MSPAAECRRQLSLDSSEAIGLQPLMQRASNTAGVFVMIDTQLEQQLQGFSALQSLFEADFDVRRLFTAEDALEAGEYGRLTVEALRNDPAAGQLFEERWVLPELNLSSLLQLPEGSFGRVYAEMLVGNGFDPDYVIQIAPVEGDDDLSYFKRLWRTTHDFHHIATGLGTDPRGEVALQAFLMGQLPIPFSVVVVSMGLLRTSVAQPDRIPALVDAISDAFRRGRHSPQLLLAQRWDHFWALPVAEVRQQLQIADLEHHHHHH	failed
MSPGGLCDAPHMAVAPRVKPLDLFTPEEWTRISARSSWRGIWMVAHAWGVILAAGALFVAFPNPLTYVLAVMLIGARQLGLAILMHEAAHGGLHPKLKVNDWLGEWLCAAPVGASLASYRPYHLSHHKYAQQAEDPDLVLSAPFPTTRRSLRRKMIRDLTGQTFFKQRFGPLLGKMKGAKTTGQPKGAIFAGEIARQRPFLLWNLGILVVLSALGLWWAWPALWIVPMATWFPLVTRLRNIAEHALVAKDEPDPFRHARTTNANWIERALIAPYYVNFHAEHHMFMHTPCWNLPLAHRVLEKKGLTQGMLTAPGYLSVLKAASSKPVAA	failed
MSPIALNLLQSTPYQVGGSLAANHPSYSQREADRELLAQLRAGKFCYVFNCRQMGKSSLRVRAMHQLQQDGVVCVSIDITSLGTEADPQKWYNGIITQLYLGLPLAGKVALKPWLREREQLSPIQKLREFVETIILQTIGDRQIVIFIDEIDKVLSLPFSLDDFFSYIRFCYNQRADDHEYNRLSFALFGVATPSDLIDNKTQTPFNIGQAIALTGFTLTEALPLSAGLPVDEVSAREILGEILAWTGGQPFLTQKVCELVAEALQKGDLDCQSQTIATTIAQLIEEKIIRHWESNDEPVHFRTIGDRLLKDQARSGQLLGLYQEILHKGAIPADDSVEQTVLRLTGLVVKVKGQLRPYNPIYQAIFNAQWVSKELNKLRPYGTNLQAWINSNYQDSSRLLRGEALREALAWASSKNLSGVDYRYLNASQNQEQEASLAANQILTQANVKAKRMISFGIVVLMMSLGGSAIALSQAYFATLKQQRSQQGTELQRLGTSAQRQFTFDQIPGLVTALEAGNQLHHLVKADETLSQYPATSPLVSLQQILSQIAEKNVLTGHRDGVTSVAISSHKNLIASASRDGTVHLWTPQGEFLREFTGHTGSIYRVDFSPNGKIFATAGQDQTVKIWDLDGNLLQTLKGHQDSVYSVSFSPDGEILASTSRDRTVRLWHWRSGKTLAVLGGHTKSVDDAQFSPDGQTLVSVCRDGQIRLWDLDGNLIRQFGLPEVAFFGVNWHPNGNLLAVAADDGTVRLWTPQGEIKATLSGHDEFVTRVVFTPDGKQLFSSSSNGSVIHWSTSGKMLKKYQGYPEAIFGLALASNGALLAIGAENNLVKVWDMSPKSDLVNLNLPAVLGAVAENAKTNTIALAMENEPLILFNTKNRSRQFLSDASQNLDRLKFSADGQWLLGQRGRQWQLWQLQTKSQLLKTWRTDISRVYDVDLRTTPTSPQWAIAMATGSGEVQLWQGTKNNQTSGNQSQGVPIELNDPIVLALGNSIQRKEPIRSVSLHPTLPQLAAGDEQGNLTLWNFDGTLIRSIVAHGDRLNQLQYSPNGKYLLSAGREGTAKIWSVEGQLLHTLKSDPLPIDQIAISPDSQWIATAASDGMVRLWDQQGNLRGEFTSTSGSLLGLDFNRQGQWLLAVAQNGDLQSWPVTPEKERLRQLVEQGCDWLRDYLATEKQPAQTYSLEFCQPTGN	failed
MSPPARKLDPWTLLLWLGLAAVSLVALYSTTHGPAAEYIGPGVQDNFARQFLWIGVSIAGIAATLLVPVRFLRYAAYPAYAATLVLLVLCLVMGVEVHGTRAWLALGPLRLQVSELAKVGTVLAVAQLLSERHTRAGQDLSFALKAAGLIVAPALLVILQNDLGTALVFFGLVPIMLFWSGLSLSVLLLMVSPAIAGYFALVSTPAALGFAVLFTGGLWAYSGRRSIAALAATFTAGVTALISFVLRKILQPYQVDRLLSFTNPGAEQFRQGVGFHLVQSKAALYSGGIWGTGFMQGPQTQGAYVPEQTTDFIFSVVAEEFGLVGSLVVLGLLAALLLRLIKLGADVKHPFGSIVAAGAVGVYLIHIFINIGMVTGMLPVIGLPLPFLSYGGSAMLANTALLAIVLNTHMRREDLSIYGY	failed
MSPPPAVVTESADGQPEQPPVTAIAEELEKKLQTDEPIVEDVKDDEDDDDDDEEEEDDDAQGVSGSSKQSRSEKKSRKAMLKLGMKPVTGVSRVTIKRTKNVLFFISKPDVFKSPHSETYVIFGEAKIEDLSSQLQTQAAQQFRMPEIGATSQRAEASTATVEAQVEEDEEEIDETGVEARDIDLVMTQAGVSRSKAVKALKSHDGDIVSAIMELTT	failed
MSPSCPMCTKWLDEPEFRIAELEHTRVMLNRDQFFPGYTFVFTREHVTELFHLSPPVRQGVMEEVTAVAAALYDLFQPAKMNYELLGNMVPHMHWHLVPRFATDPLWPRPIWSEPHAETLLAPEEYAGRIALIRDRLGL	failed
MSPSHSINSNSDGNASCSTCSTCFDTTTSTTDEEYDALIKTKTWSLVPKPAGTNIINSIWLYKHKYNADGSLSRYKSRLVANGKSQEHGVDFYETFSPVVKPATIRAVLNFAVERDSSVHQLDVQNAFLHGKLEETVYMYEPPGFVDNKNPGYVCKLNKALYGFKQAPRAWNARFASYVKMMGFKQSKCDASLFVYKQGNDMAYLLLYVDDIMLTASSPSQEKYAKNIINIVEMQNWKPSLTSVDLACKLEESVGPKIQDLTLYRSLVGALQYLTITRPNISYAVQQGLSITKSPSTKLVADSDADWVGCPNTRRSTSGYCVFLRDTLISWSSKRQGSVSRSSAEAEYKAVANAVVATCEVRVIHIPASHQYADIFTKGLTTSLFNRFKSSLGVIQRPTKRLREGDLLFNRKDEIRTFEVVSRYGHGPKLLGRFSGGRIEEFINARTLSAANLRDAEVPTRVAAKLREFHGINIPGDRNVLIWDRMRNWLRQAKSLCTPEDLAEFGLDKIEDEIYLLEHELQDKCKQQEIGFCHNDLQYGNIMIDEDTNAITIIDYEYASYNPVAYDIANHFCEMAANYKVAGEEERRRFIHNYLSSSGEEPKEDDIKQLLKDAEKYTLASHLFWGLWGIISGYVNKIDFDYAEYSRQRFKQYWLRKPELLLFSQMYISNTK	failed
MSPTVLPATQADFPKIVDVLVEAFANDPTFLRWIPQPDPGSAKLRALFELQIEKQYAVAGNIDVARDSEGEIVGVALWDRPDGNHSAKDQAAMLPRLVSIFGIKAAQVAWTDLSSARFHPKFPHWYLYTVATSSSARGTGVGSALLNHGIARAGDEAIYLEATSTRAAQLYNRLGFVPLGYIPSDDDGTPELAMWKPPAMPTV	not failed
